Results on two molecules are retold here after patent publication US20200332017A1 (SALUBRIS CHENGDU BIOTECH, published 2020).

In assay [1] the target is T1, full length human CD40 (uniprot # P25942-1) on the membrane of 293T-CD40 cells (human, UniProt P25942 21-277). The assay is described as follows: cell-based or functional assay.
The target of assay [2] is T2, Human CD40-his protein (Acro biosystems, Cat # CD0-H5228) (human, UniProt P25942 21-193).
T2 construct: Bought reagent; not shown: his tag
Kind of assay: SPR, Biacore T200; antibody captured, antigen flowed; 1:1 Langmuir fit. From the text: (§1) Briefly, goat anti-mouse IgG (GE healthcare, Cat # BR100838, Mouse Antibody Capture Kit) was covalently linked to a CM5 or a Protein G chip (carboxy methyl dextran coated chip) via primary amines, using a standard amine coupling kit provided by Biacore (GE healthcare, Pittsburgh, Pa., USA). Un-reacted moieties on the biosensor surface were blocked with ethanolamine. […] Then, human CD40-his (Acro biosystems, Cat # CD0-H5228) or cynomolgus monkey CD40-his protein (Acro biosystems, Cat # CD0-052H6) in HBS EP buffer (provided by Biacore) was flowed onto the chip at a flow rate of 30 μL/min. The antigen-antibody association kinetics was followed for 2 minutes and the dissociation kinetics was followed for 10 minutes. The association and dissociation curves were fit to a 1:1 Langmuir binding model using BIA evaluation software.

Assay [3] concerns the target T3, cynomolgus monkey CD40-his protein (Acro biosystems, Cat # CD0-052H6) (cynomolgus monkey, UniProt G7PG38 21-193).
T3 construct: Bought reagent; also called Cynomolgus CD40-his
The description is as above.
From the text: as §1

The target of assay [4] is T4, human CD40-Fc protein (amino acid residue 21-193 of SEQ ID NO: 67 linked to N-terminus of amino acid residue … (human, biotin-labeled in the capture ELISA and in the benchmark blocking ELISA; unlabeled when coated in the ligand blocking ELISA).
T4 construct: also called biotin-labeled human CD40-Fc; human CD40-Fc-biotin
Kind of assay: capture ELISA; antibody captured, biotin-labeled human CD40-Fc in solution. The procedure:
(§2) Plates were washed 4 times with wash buffer (PBS+0.05% Tween-20, PBST) and then blocked with 200 μl/well blocking buffer (5% w/v non-fatty milk in PBST) for 2 hours at 37° C. […] After a final wash, plates were incubated with 100 μl/well ELISA substrate TMB (Innoreagents, Cat # TMB-S-002). The reaction was stopped in 15 minutes at 25° C. with 50 μl/well 1M H₂SO₄, and the absorbance was read at 450 nm and plotted against antibody concentration. Data were analyzed using Graphpad Prism software and EC₅₀ values were reported.

Assay [5] addresses T4, human CD40-Fc protein (amino acid …). The assay is described as follows: competitive ELISA; coated human CD40-Fc, competitor biotin human CD40L-his. On the procedure:
(§3) Briefly, human CD40-Fc proteins (amino acid residue 21-193 of SEQ ID NO: 67 linked to N-terminus of amino acid residue 99-330 of SEQ ID NO.: 24) were coated on 96-well micro plates at 2 μg/mL in coating buffer (PBS) and incubated overnight at 4° C. The next day, plates were washed with wash buffer (PBS+0.05% Tween-20, PBST), and blocked with 5% w/v non-fatty milk in PBST for 2 hours at 37° C. Plates were then washed again using wash buffer.
(§4) Serially diluted the mouse anti-CD40 antibodies of the present invention or the controls (starting at 200 nM with a four-fold serial dilution) in 2.5% w/v non-fatty milk in PBST were prepared to the plates and incubated with the human CD40-Fc proteins at room temperature for 40 minutes. […] Plates were washed again. 100 μl/well of streptavidin conjugated HRP was added and incubated for 40 minutes at 37° C. Plates were washed again using wash buffer. Finally, TMB was added and the reaction was stopped using 1M H₂SO₄, and the absorbance was read at 450 nm. Data were analyzed using Graphpad Prism software and IC₅₀ values were reported.

Assay [6] has as its target T1, full length human CD40 (uniprot # …). Kind of assay: flow cytometry on 293T-CD40 cells, PE-labeled secondary antibody, MFI. The procedure: 2×10⁵ cells per well in 96 well-plates were incubated with the mouse anti-CD40 antibodies or the controls of various concentrations in FACS buffer for 40 minutes on ice. […] Following an incubation of 40 minutes at 4° C. in dark, cells were washed three times and resuspended in FACS buffer. Fluorescence was measured using a Becton Dickinson FACS Canto II-HTS equipment and plotted against antibody concentration.
In general terms: In flow cytometry, cells or beads pass a laser one at a time.

In assay [7] the target is T4, human CD40-Fc protein (amino acid …). The assay is described as follows: capture ELISA (antibody captured on coated anti-IgG F(ab')2, biotin-labeled human CD40-Fc in solution, streptavidin-HRP, OD(450-630)). The procedure:
as §2
On the technique in general: In an ELISA, binding on a coated surface is turned into a signal by an enzyme label.

Assay [8] shares this target. Described as above. On the procedure:
as §2
This is another data set of the same source.

Assay [9] shares this target. The assay is described as follows: ligand blocking ELISA: human CD40-Fc coated, antibody titrated, then biotin-labeled human CD40L-his (blocked ligand), streptavidin-HRP, OD(450-630). On the procedure:
as §3, §4

In assay [10] the target is T2, Human CD40-his protein (Acro …). Kind of assay: SPR, Biacore; antibody captured, human CD40-his flowed.
From the text: as §1

For assay [11], the target named is T4, human CD40-Fc protein (amino acid …). The assay is described as follows: capture ELISA; antibody captured, biotin-labeled human CD40-Fc in solution. The procedure: as §2
This is another data set of the same source.

Like-named read-outs stand apart in the source and are kept apart here.

B1: mouse anti-CD40 monoclonal antibody C1C1 (antibody, V domains shown)
VH: EVKLVESGGGLVKPGASLKLSCAASGFTFSNYGMSWVRQNSDKRLEWVASISSGGDDTYYPDNVKGRCTISRENAKNTLYLEMSSLKTEDTALYYCTRAGGKAMDYWGQGTSVTVST
VL: DIVLTQSPATLSVIPGNSVSLSCRASQSIRDNLHWYQQKSHESPRLLINYASQSISGIPSRFSGSGSGTDFTLTINSVETEDFGIYFCQQFNSWPLTFGGGTKLELK
notes: those are used here for the chimeric antibody only; also called Mouse C1C1; mouse C1C1
The term Kd denotes the concentration at which binding is half-saturated. As a reminder, the koff is the first-order rate constant of dissociation. Broadly, the kon is the second-order rate constant of association. A word on the EC50: it is the concentration needed to bring the measured effect to its halfway point. What is called IC50 is the concentration that inhibits the measured activity by half. As usually defined, the EC50 (read off the curve) is the concentration at which the effect is half-maximal. Consider B1, for which the “Cell-based Reporter assay (EC50, nM)” value in assay [1] was 3.65 nM. For the same molecule, the dissociation constant Kd in assay [2] amounted to 0.217 nM; in [3], 0.486 nM. Further, the off-rate constant (koff) came out at 0.000542 s⁻¹ in assay [2] and 0.00119 s⁻¹ in assay [3]. For the same molecule, the results for the kon in assay [2] and in assay [3] were 2.49e+06 M⁻¹ s⁻¹ and 2.45e+06 M⁻¹ s⁻¹, respectively. Moreover, the EC50 in [4] was found to be 0.19 nM. The IC50 in assay [5] came to 5.19 nM. For the same molecule, the concentration giving a half-maximal response (EC50 (read off the curve)) was about 0.5 nM in assay [6], about 0.2 nM in assay [7] and about 0.02 µg/mL in assay [8]. Further, in assay [9], the “IC50 (read off the curve)” value was about 5 nM.

B2: chimeric antibody C1C1 (antibody, human IgG1, kappa, V domains shown)
VH: EVKLVESGGGLVKPGASLKLSCAASGFTFSNYGMSWVRQNSDKRLEWVASISSGGDDTYYPDNVKGRCTISRENAKNTLYLEMSSLKTEDTALYYCTRAGGKAMDYWGQGTSVTVST
VL: DIVLTQSPATLSVIPGNSVSLSCRASQSIRDNLHWYQQKSHESPRLLINYASQSISGIPSRFSGSGSGTDFTLTINSVETEDFGIYFCQQFNSWPLTFGGGTKLELKR
notes: also called chC1C1; chimeric C1C1
Regarding B2, in assay [10], the equilibrium dissociation constant (Kd) turned out to be 7.09 nM, the dissociation rate constant (koff) stood at 0.00575 s⁻¹ and the association rate constant (kon) was found to be 810000 M⁻¹ s⁻¹. This molecule also returned a concentration for a half-maximal effect (EC50) in assay [11] of 0.236 nM.
